Laboratory results published in article PMC3553987.

How the values were obtained:
[1] = molecular target: T1, c-Myc;Max isoform (human;human) (UniProt P01106+P61244); assay: TIRF-PBM; details: 5' amino on one strand, coupled to hydrogel
[2] = molecular target: T1, c-Myc;Max isoform (human;human); assay: TIRF-PBM; details: 5' amino on one strand, coupled to hydrogel; remark: listed apart in the source
[3] = test system: U-STAT1 (unphosphorylated STAT1) (human); assay: EMSA
[4] = test system: P-STAT1 (phosphorylated STAT1) (human); assay: TIRF-PBM; details: 5' amino on one strand, coupled to hydrogel

T1 sequence (P01106 16-454, chain 1 of 2): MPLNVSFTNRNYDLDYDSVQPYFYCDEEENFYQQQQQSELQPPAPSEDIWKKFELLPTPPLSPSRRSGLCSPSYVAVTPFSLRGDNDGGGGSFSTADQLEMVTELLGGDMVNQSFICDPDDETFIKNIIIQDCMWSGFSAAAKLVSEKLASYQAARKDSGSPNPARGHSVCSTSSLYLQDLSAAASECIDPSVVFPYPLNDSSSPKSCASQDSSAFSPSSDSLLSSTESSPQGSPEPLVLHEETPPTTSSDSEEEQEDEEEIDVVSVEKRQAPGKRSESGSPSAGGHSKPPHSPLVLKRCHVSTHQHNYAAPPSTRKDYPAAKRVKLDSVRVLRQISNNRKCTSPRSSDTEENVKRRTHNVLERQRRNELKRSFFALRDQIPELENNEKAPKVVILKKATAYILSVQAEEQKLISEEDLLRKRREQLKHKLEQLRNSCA
T1 sequence (P61244 2-160, chain 2 of 2): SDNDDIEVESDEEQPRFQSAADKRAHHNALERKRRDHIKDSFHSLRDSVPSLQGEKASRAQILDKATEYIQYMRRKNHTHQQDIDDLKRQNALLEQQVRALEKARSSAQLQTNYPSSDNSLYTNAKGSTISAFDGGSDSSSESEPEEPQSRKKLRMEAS

Myc/Max cognate E-box DNA (probe number not given)
Kd [1]: 0.9 nM
Kd [2]: 3.6 nM

GAS cognate DNA (EMSA)
binding signal (fold lower affinity than P-STAT1) [3]: > 200

sequence 70 (optimal GAS, spacer CCG)
Kd [4]: 3.4 nM
